Non-standard residues stand in square brackets, D forms with d. No end group written: not given here. Aib = CC(C)(N)C(=O)O

Assay [1] deals with HLA-A2 supertype alleles. Kind of assay: peptide binding to purified MHC molecules of the HLA-A2 supertype; count of alleles bound.
Assay [2] concerns the target T1, HLA-A2.1 molecule (purified) (human).
T1 construct: limits of the heavy chain and presence of b2m in the preparation are not described; also called HLA-A*0201; prototype HLA-A2.1 molecule
Briefly: peptide binding to purified HLA-A2.1 molecule.

B1: p53.139L2B3 (peptide)
peptide: KL[Aib]PVQLWV
modifications: not fully specified
In turn, B1 had a No. A2 Alleles Crossbound in assay [1] of 4 alleles.

B2: CEA.691H5 (peptide)
peptide: IMIGHLVGV
notes: also called peptide 1352.02
As to B2, in assay [2], the binding result is on record as “binds”. Also, the No. A2 Alleles Crossbound in assay [1] was 5 alleles.

B3: MAGE-3.112I5 (peptide)
peptide: KVAEIVHFL
notes: also called peptide 1352.03
As to B3, in assay [2], the binding result is reported as “binds”. In addition, the No. A2 Alleles Crossbound in assay [1] stood at 5 alleles.

These data come from patent publication US20080274129A1 (BIOTECH SYNERGY, published 2008).
